Here are results for 1 substance from publication PMC11524475.

The stoichiometry N is the number of molecules, sites or subunits per partner or assembly.

This assay deals with NbNRC2-6xHis-3xFLAG, affinity-purified from N. benthamiana leaves (Nicotiana benthamiana). Description: SEC; purified NbNRC2-6xHis-3xFLAG on Superdex 200 Increase 10/300 GL, 25 mM Tris-HCl pH 8, 500 mM NaCl, 5% glycerol, 1 mM EDTA, 4°C; size estimated from a protein standard curve.

“NbNRC2-6xHis-3xFLAG, affinity-purified from N. benthamiana leaves (natural protein)”: the stoichiometry N was 2.
